Laboratory results taken from PMC7660905.

Assays:
[1] = molecular target: D25 IgG (human monoclonal antibody to site Ø of PreF) (human); assay: SPR; Biacore T200, single cycle kinetics, IgG captured ([…]; 25 °C, HBS-EP; 1:1 binding model
[2] = molecular target: D25 (human monoclonal antibody to site Ø of PreF); assay: SPR; details: read off a plot; for Kd: parent: est. 54 pM; for ratio to parent: parent: est. 1.0
[3] = molecular target: AM14; assay: SPR; details: read off a plot; for Kd: parent: est. 100 pM; for ratio to parent: parent: est. 1.0
[4] = molecular target: D25 IgG (human monoclonal antibody to site Ø of PreF) (human); assay: SPR; Biacore T200, single cycle kinetics, IgG captured (100-200 RU) by human Fc binder on a CM5 chip; PreF injected at 0-20 nM, 120 s association, 600 s dissociation; 25 °C, HBS-EP; 1:1 binding model

Substance	Kd [1] [pM]	Kd [2] [pM]	ratio to parent [2]	Kd [3] [pM]	ratio to parent [3]	Kd [4] [pM]	koff [4] [s⁻¹]	kon [4] [M⁻¹ s⁻¹]
DS-Cav1 (prefusion-stabilized RSV fusion glycoprotein F), trimeric PreF (from UniProt P03420) (complex)	53.4	–	–	–	–	–	–	–
DS-Cav1 (stabilized prefusion RSV glycoprotein F) (from UniProt P03420) D200N	–	22	0.4	120	1.2	–	–	–
DS-Cav1 (stabilized prefusion RSV glycoprotein F) (from UniProt P03420) D200N; N276S	–	57	1	94	0.95	–	–	–
DS-Cav1 (stabilized prefusion RSV glycoprotein F) (from UniProt P03420) K65A	–	42	0.75	88	–	–	–	–
DS-Cav1 (stabilized prefusion RSV glycoprotein F) (from UniProt P03420) N63A	–	25	0.45	94	0.95	–	–	–
DS-Cav1 (stabilized prefusion RSV glycoprotein F) (from UniProt P03420) N63A; K65A	–	16	0.3	83	–	–	–	–
DS-Cav1 (stabilized prefusion RSV glycoprotein F) (from UniProt P03420) N276S	–	21	0.4	78	0.75	–	–	–
monomeric form of PreF	–	–	–	–	–	97.7	3.75e-05	384000
